The results in this text go back to patent US7011975 (UNIVERSITY OF GEORGIA RESEARCH FOUNDATION, dated 2006).

The target in this experiment is Cry1Ac toxin (Bacillus thuringiensis, UniProt P05068 29-623, rhodamine label (5(6)-TAMRA SE) in the cell-staining assay; coupled to CNBr-activated Sepharose 4B in the affinity assay). Put plainly: rhodamine-labeled toxin staining of fixed Sf21 cells, confocal microscopy.

B1: Manduca sexta 120 kDa aminopeptidase N APN1a expressed in Sf21 cells transfected with pHSP120 (receptor)
chain: PSYRLPTTTRPRHYAVTLTPYFDVVPAGVSSLTTFSFDGEVTIYISPTQANVNEIVLHCNDLTIQSLRVTYVSGNSEVDITATGQTFTCEMPYSFLRIRTSTPLVMNQEYIIRSTFRGNLQTNMRGFYRSWYVDRTGKRWMATTQLQPGHARQAFPCYDEPGFKATFDITMNREADFSPTISNMPIRATTTLTNGRISETFFTTPLTSTYLLAFIVSHYQVISNNNNAARPFRIYARNNVGSQGDWSLEMGEKLLLAMENYTAIPYYTMAQNIDMKQAAIPDFSAGAMENWGLLTYREALILYDPLNSNHHYRQRVANIVSHEIAHMWFGNLVTCAWWDNLWLNEGFARFYQYYLTATVDPELGYEIRFIPEQLQVAMFSDSVDSAHALTDTSVNDPVAVSAHFSTITYARGAAILRMTQHLLSYDTFVKGLRQYLRARQFDVAEPYHLFSALDAAAAEDNALAAYTGITIDAYFRTWSEKAGHPLLSVTVDHETGRMTLVQARWERNTGVSRFPGLWHIPITWTRAGAPDFENLKPSQVMTGQSLVIDRGTRGQEWVIFNKQVSGFYRVNYDNTTWGLITRALRSANRTVIHELSRSQIVDDVFQLARSGVMSYQRALNILSYLRFEDAYAPWLSAISGFNWVIRRFAHDAANLQTLQNQIIGLSEAVVARLGFTEVSGGTYMTDLQRLHVMQFLCNVGHQQCIDTGRQNFLNWRNGSFIPANMRPWVYCTGLRYGSAEDFNYFWNRYIVEDLSNEKVVMLEAAGCTRDQASLEKFLNAIVSGNDDVRPQDHSSALSSAITSNDVNTMRAFDWLTKNVDQITRTLGSITSPLNTITSRLLTEAQMTQVQTWLDANRNTIGAAYNTGVNGIATSRANLQWSANRMSEFLRFFETGFVDDVPSEATTVAPPAETTVTPSTFPPTEAPATTPAPG
modifications: GPI anchor at the C-terminus; heterogeneously glycosylated (residues not stated)
notes: also called expressed APN; expressed 120 kDa APN
For the molecule B1, the binding result is given as “no binding (tested: 1 µg/ml)”.
